In this assay the target is Keap-1 (UniProt Q14145 1-624). Description: cell-based or functional assay.
Sequence of Keap-1 (Q14145 whole entry): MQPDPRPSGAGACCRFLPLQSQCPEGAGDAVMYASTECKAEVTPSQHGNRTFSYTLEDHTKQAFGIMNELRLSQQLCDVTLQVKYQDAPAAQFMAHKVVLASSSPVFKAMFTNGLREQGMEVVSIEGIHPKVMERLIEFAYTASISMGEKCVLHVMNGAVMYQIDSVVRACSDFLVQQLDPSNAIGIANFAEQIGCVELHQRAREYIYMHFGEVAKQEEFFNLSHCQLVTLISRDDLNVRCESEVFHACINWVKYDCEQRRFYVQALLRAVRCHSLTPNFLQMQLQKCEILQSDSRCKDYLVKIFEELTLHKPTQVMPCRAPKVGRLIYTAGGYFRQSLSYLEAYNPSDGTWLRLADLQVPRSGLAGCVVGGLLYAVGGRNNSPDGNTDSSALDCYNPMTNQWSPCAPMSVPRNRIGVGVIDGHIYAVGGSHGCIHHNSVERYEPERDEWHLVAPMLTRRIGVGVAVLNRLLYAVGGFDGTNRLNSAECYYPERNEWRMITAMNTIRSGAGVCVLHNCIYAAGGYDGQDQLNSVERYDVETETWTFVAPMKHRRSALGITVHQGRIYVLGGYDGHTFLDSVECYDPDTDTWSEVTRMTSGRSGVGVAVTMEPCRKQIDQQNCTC

On to RKKRRQRRRLQLDEETGEFLPIQ [TatNrf2-14mer peptide (HIV-1 Tat cell penetrating peptide fused to the Nrf2 14mer)], for which the “GSTM1 mRNA (antioxidant enzyme and marker of the ARE response), RT-PCR in human retinal pigment epithelial cells treated with the TatNrf2 plasmid” value stood at 18 fold.

Values taken from patent US20170088593A1 (UNIVERSITY OF FLORIDA RESEARCH FOUNDATION, published 2017).
